Tests used:
[1] = target: T1, HLA-A*0201 (human); assay: polypeptides eluted from HLA of HLA-typed EBV-LCLs (HLA elution database); allele as in Table 1
T1 construct: HLA class I molecule on HLA-typed EBV-LCLs from which the polypeptides were eluted; also called HLA-A2

[2] = target: T2, HLA-B*0702 (human); assay: as above
T2 construct: HLA class I molecule on HLA-typed EBV-LCLs from which the polypeptides were eluted; also called HLA-B7

[3] = target: T3, Bob1 (B cell Oct binding protein 1, gene POU2AF1) peptide on HLA-A*02:01 (human); assay: multimer staining
T3 peptide: YALNHTLSV

[4] = target: T4, Bob1 (B cell Oct binding protein 1, gene POU2AF1) peptide on HLA-B*07:02 (human); assay: multimer staining
T4 peptide: APAPTAVVL

B1: BOB1245 peptide YALNHTLSV (peptide)
peptide: YALNHTLSV
notes: Bob1-derived peptide from the HLA elution set
B1: binds [1].

B2: BOB114 peptide APARPYQGV (peptide)
peptide: APARPYQGV
notes: as for B1
B2: binds [2].

B3: TCR of T cell clone 3C10 (TCR, V domains shown)
Valpha: GENVEQHPSTLSVQEGDSAVIKCTYSDSASNYFPWYKQELGKGPQLIIDIRSNVGEKKDQRIAVTLNKTAKHFSLHITETQPEDSAVYFCAASTGGGYSTLTFGKGTMLLVSP
Vbeta: DAGVIQSPRHEVTEMGQEVTLRCKPISGHDYLFWYRQTMMRGLELLIYFNNNVPIDDSGMPEDRFSAKMPNASFSTLKIQPSEPRDSAVYFCASSGQGITLAGANVLTFGAGSRLTVL
B3: recognises [3].

B4: TCR of T cell clone 4G11 (TCR-4G11) (TCR, V domains shown)
Valpha: GENVEQHPSTLSVQEGDSAVIKCTYSDSASNYFPWYKQELGKGPQLIIDIRSNVGEKKDQRIAVTLNKTAKHFSLHITETQPEDSAVYFCAASKGSSNTGKLIFGQGTTLQVKP
Vbeta: DTEVTQTPKHLVMGMTNKKSLKCEQHMGHRAMYWYKQKAKKPPELMFVYSYEKLSINESVPSRFSPECPNSSLLNLHLHALQPEDSALYLCASSHGPASYEQYFGPGTRLTVT
B4: recognises [4].

B5: BOB144 peptide APAPTAVVL (peptide)
peptide: APAPTAVVL
notes: as for B1
B5: binds [2].

B6: BOB1197 peptide APALPGPQF (peptide)
peptide: APALPGPQF
notes: as for B1
B6: binds [2].
